*1 amine or outer side, *2 acyl side, *3 side chain or, on linkers, in order; H or OH if unused. Bridges are numbered along the chain shown (N, C = ends). Primed or numbered codes have the meaning given here. [ ]: non-standard residue; d: D form. cleavable peptide RGRRVANLVG = CC(C)C[C@H](NC(=O)[C@H](CC(N)=O)NC(=O)[C@H](C)NC(=O)[C@@H](NC(=O)[C@H](CCCNC(=N)N)NC(=O)[C@H](CCCNC(=N)N)NC(=O)CNC(=O)[C@H](CCCNC(=N)N)N[*:1])C(C)C)C(=O)N[C@H](C(=O)NCC(=O)[*:2])C(C)C; Ygp = O-(8x polyethylene glycol-amino)-tyrosine; Yn3 = O-(9x polyethylene glycol-azido)-tyrosine; Ygp(3) = O-(PEG8-amino)-tyrosine; Yn3(3) = O-(PEG9-azido)-tyrosine; hSer = N[C@@H](CCO)C(=O)O; Nle = CCCC[C@H](N)C(=O)O

For orientation: Kd means the constant that tells how readily two partners part at equilibrium. What is called koff is the first-order rate constant of dissociation. By kon is commonly meant the second-order rate constant of association.

The target of test [1] is T1, recombinant human IL-2 receptor beta containing a His-tag and Avi-Tag (R&D Systems #AVI10459) (human, UniProt P14784 27-239).
T1 construct: bought protein, held on the Octet SAX2 sensor; also called CD122; IL-2Rβ
T1 sequence (looked up): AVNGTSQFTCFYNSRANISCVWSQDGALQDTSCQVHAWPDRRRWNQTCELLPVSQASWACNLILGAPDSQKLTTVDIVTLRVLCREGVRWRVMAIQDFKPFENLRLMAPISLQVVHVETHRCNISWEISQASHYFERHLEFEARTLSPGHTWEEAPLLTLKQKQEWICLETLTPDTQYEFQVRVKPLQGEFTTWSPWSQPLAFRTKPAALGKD
Briefly: BLI (Octet), receptor on SAX2 sensor, IL-2 as analyte; construct CMP-165, intact (not the MMP2-treated row r16). The method, then: (§1) Bilayer interferometry (BLI) assays were used to measure the binding constants between activatable IL-2 polypeptides (and activated versions thereof) to IL-2 receptor subunits or receptor complexes. BLI assays were conducted on an Octet® R8 instrument. Assay plates were 96 well, polypropylene, F-bottom (chimney well), black microplates (Greiner Bio-one, Cat. No: 655209). The biosensors were Octet® SAX2 (Sartorius, Cat. No: 18-5136). The assay buffer was 1× Kinetic Buffer (Sartorius, Cat. no: 18-5136) or Phosphate Buffered Saline (PBS) that contained 0.02% (v: v) Tween 20 (Polysorbate 20) and 0.1% (w/v) bovine serum albumin (BSA). The sensor was regenerated between measurements in 10 mM glycine pH 2.7 buffer.
(§2) Sensor attached receptors were either recombinant human IL-2 receptor beta containing a His-tag and Avi-Tag™ (R&D Systems™ #AVI10459) or an Avi-Tag™ Fc with human IL-2R beta and IL-2R gamma attached (Acrobiosystems Cat. no: ACRB-ILG-H82F3-25UG). Receptors were reconstituted from lyophilized powder to 500 μg/ml in PBS. Analytes were diluted in Kinetic buffer to 300 nM, then serially diluted to lower concentrations.

Test [2] deals with T1, recombinant human IL-2 receptor beta …. Kind of test: BLI (Octet), receptor on SAX2 sensor, IL-2 as analyte; construct CMP-167, intact (not the MMP2-treated row r22). The method, then: as §1, §2
The target of test [3] is T2, Avi-Tag Fc with human IL-2R beta and IL-2R gamma attached (Acrobiosystems ACRB-ILG-H82F3-25UG) (human, UniProt P14784 27-239; P31785 23-262).
T2 construct: bought heterodimer; also called CD122 CD132; CD122/CD132 complex
T2 sequence (looked up) 1: T1 sequence (looked up)
T2 sequence (looked up) 2: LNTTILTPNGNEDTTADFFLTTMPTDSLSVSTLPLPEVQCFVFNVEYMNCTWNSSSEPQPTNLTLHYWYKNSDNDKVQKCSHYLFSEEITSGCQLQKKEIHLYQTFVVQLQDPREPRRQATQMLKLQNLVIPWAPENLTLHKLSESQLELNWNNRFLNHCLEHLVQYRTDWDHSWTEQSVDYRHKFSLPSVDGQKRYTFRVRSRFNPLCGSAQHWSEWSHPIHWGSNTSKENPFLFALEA
Briefly: BLI (Octet), receptor on SAX2 sensor, IL-2 as analyte. As for the experimental part:
as §1, §2

In test [4] the target is T1, recombinant human IL-2 receptor beta …. Briefly: BLI (Octet), receptor on SAX2 sensor, IL-2 as analyte; construct CMP-313. As for the experimental part: as §1, §2
On the technique in general: In BLI a coated tip is dipped into the sample, and binding shifts an interference pattern.

Test [5] has the same target. Kind of test: BLI (Octet), receptor on SAX2 sensor, IL-2 as analyte. The method, then:
as §1, §2

The target is the same in test [6]. Kind of test: BLI (Octet), receptor on SAX2 sensor, IL-2 as analyte; construct CMP-328. As for the experimental part:
as §1, §2

Test [7] has the same target. Briefly: BLI (Octet), receptor on SAX2 sensor, IL-2 as analyte; construct CMP-166, intact (not the MMP2-treated row r19). The method, then: as §1, §2

B1: CMP-165 (ligand)
chain: APTSSSTKKTQLQLEHLLLDLQKILNGINNYKNPKLTR[Nle]L[hSer][Yn3]KF[Ygp][Nle]PKKATELKHLQCLEEELKPLEEVL[hSer]LAQSKNFHLRPRDLISNINVIVLELKGSETTF[hSer]CEYADETATIVEFLNRWITFSQSIISTLT
modifications: disulfide 58-105 (inferred); bridge N-23; not fully specified (bridges)
Regarding B1, the Kd in test [1] amounted to 44200 nM.

B2: CMP-167 (ligand)
chain: APTSSSTKKTQLQLEHLLLDLQKILNGINNYKNPKLTR[Nle]L[hSer][Yn3]KF[Ygp][Nle]PKKATELKHLQCLEEELKPLEEVL[hSer]LAQSKNFHLRPRDLISNINVIVLELKGSETTF[hSer]CEYADETATIVEFLNRWITFSQSIISTLT
modifications: disulfide 58-105 (inferred); bridge N-23; not fully specified (bridges); also: cleavable peptide (sequence not given here) joined to N-terminus via glutaryl-PEG9 and to Lys23 side chain
As for B2, the Kd in test [2] worked out at 215 nM.

B3: CMP-313 (ligand)
chain: APTSSSTKKTQLQLEHLLLDLQK(KKRGRRVANLVG)ILNGINNYKNPKLTR[Nle]L[hSer][Yn3(3)]KF[Ygp(3)][Nle]PKKATELKHLQCLEEELKPLEEVL[hSer]LAQSKNFHLRPRDLISNINVIVLELKGSETTF[hSer]CEYADETATIVEFLNRWITFSQSIISTLT
modifications: disulfide 58-105; also: branched 27x PEG chains on the attached peptide
In turn, B3 had a koff in test [3] of 0.00148 s⁻¹. Moreover, the dissociation constant (Kd) in test [4] was 163 nM.

B4: CMP-328 (ligand)
chain: APTSSSTKKTQLQLEHLLLDLQEILNGINNYKNPKLTR[Nle]L[hSer][Yn3(3)]KF[Ygp(3)][Nle]PKKATELKHLQCLEEELKPLEEVL[hSer]LAQSKNFHLRPRDLISNINVIVLELKGSETTF[hSer]CEYADETATIVEFLNRWITFSQSIISTLT
modifications: disulfide 58-105; linker 9-23 via cleavable peptide RGRRVANLVG; also: macrocycle: cleavable peptide bridging Lys9 and Glu23 side chains (structure drawing only)
In the case of B4, in test [5], the koff came out at 0.00154 s⁻¹ and the kon was found to be 4.52e+07 M⁻¹ s⁻¹. In test [3], this molecule returned a Kd of 24.9 nM, a koff of 0.00194 s⁻¹ and a kon of 77800 M⁻¹ s⁻¹. Besides, the Kd in test [6] was 0.034 nM.

B5: CMP-166 (ligand)
chain: APTSSSTKKTQLQLEHLLLDLQKILNGINNYKNPKLTR[Nle]L[hSer][Yn3]KF[Ygp][Nle]PKKATELKHLQCLEEELKPLEEVL[hSer]LAQSKNFHLRPRDLISNINVIVLELKGSETTF[hSer]CEYADETATIVEFLNRWITFSQSIISTLT
modifications: disulfide 58-105 (inferred); bridge N-23; not fully specified (bridges); also: cleavable peptide (sequence not given here) joined to N-terminus via glutaryl-PEG4 and to Lys23 side chain
As for B5, in test [7], the Kd was 614 nM.
